What was measured:
[1] = Freezing point depression of DMSO solutions by DSC; format: physicochemical; conditions: cooled to −40° C. and heated to 40° C. at 8° C. per minute
Method: Using PerkinElmer Instruments PYRIS Diamond Differential Scanning Calorimetry (“DSC”), samples were cooled to −40° C. and heated to 40° C. at 8° C. per minute for screening purposes.

[2] = Effect of pH on insulin solubility in DMSO; format: physicochemical
Method: These solutions were lyophilized to dryness ([…]) using a conservative cycle and reconstituted to various nominal concentrations in DMSO. Solubility was measured by visual inspection for clarity and turbidity via A630.

Row | temperature of crystallization (Tc) by DSC [1] [°C] | Molecule | solubility in DMSO ([2]; lyophilized at pH 2) | time to slowly dissolve to a clear solution ([2]; pH memory of 7, lower concentration e.g. 10 mg/mL, DMSO) | solubility in DMSO ([2]; pH memory of 7, lowest concentration tested 10 mg/mL)
1 | 18 | C[S+](C)[O-] [neat DMSO, dimethylsulfoxide] |  |  | 
2 |  | insulin | at least 100 mg/mL | about 24 hours | poor solubility

— patent US9295724B2, “Stable formulations for parenteral injection of peptide drugs” (Xeris Pharmaceuticals, Inc., priority 2011, dated 2016)
